Assay results published in the Human Domainome abundance scans (Beltran et al. 2025).
± gives the uncertainty stated by the source.

B1: Retinoic acid receptor beta, residues 85 to 161; numbered along this chain, P10826 (parent)
chain: YKPCFVCQDKSSGYHYGVSACEGCKGFFRRSIQKNMIYTCHRDKNCVINKVTRNRCQYCRLQKCFEVGMSKESVRND

Variants of: B1
Test: abundance fitness (aPCA) (normalised: wild type 0, dead -1); higher = more abundant; growth selection in yeast, the domain comes from the species named
Conditions: Homo sapiens

Abundance fitness, by site and new letter:
K34: N 0.089 ± 0.1, P -0.084 ± 0.077, R -0.122 ± 0.035, T -0.06 ± 0.056, V -0.145 ± 0.039, W 0.05 ± 0.041, Y -0.007 ± 0.086
N35: A 0.037 ± 0.045, C 0.024 ± 0.08, D 0.128 ± 0.062, E 0.159 ± 0.046, F -0.215 ± 0.11, G 0.077 ± 0.032, H -0.373 ± 0.14, I -0.684 ± 0.32, K 0.186 ± 0.061, L -0.235 ± 0.06, M -0.149 ± 0.081, P -0.312 ± 0.092, Q 0.087 ± 0.065, R -0.018 ± 0.037, S 0.035 ± 0.051, T 0.039 ± 0.063, V -0.184 ± 0.057, W -0.45 ± 0.072
M36: A 0.132 ± 0.045, C 0.15 ± 0.065, E 0.124 ± 0.046, F -0.4 ± 0.12, G -0.141 ± 0.035, H -0.025 ± 0.13, I -0.239 ± 0.1, K 0.01 ± 0.07, L 0.053 ± 0.046, N 0.009 ± 0.11, P -0.216 ± 0.098, Q 0.089 ± 0.059, R -0.064 ± 0.036, S -0.002 ± 0.053, T 0.051 ± 0.065, V 0.072 ± 0.039, W -0.127 ± 0.052
I37: C -0.204 ± 0.099, D 0.048 ± 0.079, E 0.046 ± 0.048, G -0.152 ± 0.036, H -0.161 ± 0.16, K 0.13 ± 0.055, L -0.053 ± 0.045, N 0.043 ± 0.081, P -0.118 ± 0.084, Q 0.1 ± 0.06, R -0.009 ± 0.035, S -0.085 ± 0.057, T -0.098 ± 0.057, V 0.032 ± 0.038, W -0.119 ± 0.053, Y -0.345 ± 0.16
Y38: A -0.59 ± 0.083, C -0.899 ± 0.26, D -0.997 ± 0.34, E -0.472 ± 0.077, F -0.187 ± 0.12, G -0.523 ± 0.06, H -0.414 ± 0.13, M -0.466 ± 0.088, N -0.28 ± 0.18, P -0.26 ± 0.085, Q -0.739 ± 0.15, R -0.499 ± 0.065, S -0.417 ± 0.074, T -0.173 ± 0.066, W -0.282 ± 0.062
T39: A -0.017 ± 0.033, C -0.047 ± 0.058, D 0.078 ± 0.058, E -0.025 ± 0.038, F 0.105 ± 0.058, G -0.156 ± 0.03, H 0.029 ± 0.067, K 0.056 ± 0.047, L 0.059 ± 0.033, M 0.061 ± 0.039, N 0.003 ± 0.056, P -0.327 ± 0.08, Q 0.076 ± 0.041, R -0.01 ± 0.028, S -0.01 ± 0.039, W -0.097 ± 0.036, Y -0.009 ± 0.067
C40: A -0.901 ± 0.096, D -0.825 ± 0.19, E -0.831 ± 0.096, F -0.775 ± 0.19, G -0.817 ± 0.057, I -0.667 ± 0.14, K -0.848 ± 0.15, L -0.555 ± 0.073, M -0.568 ± 0.087, N -0.999 ± 0.34, P -0.703 ± 0.12, R -0.883 ± 0.073, S -0.885 ± 0.11, T -0.539 ± 0.11, V -0.867 ± 0.082, W -0.594 ± 0.087, Y -0.642 ± 0.17
H41: A -0.006 ± 0.039, C -0.157 ± 0.066, D 0.051 ± 0.053, E 0.131 ± 0.037, G -0.024 ± 0.03, I -0.064 ± 0.11, K -0.103 ± 0.073, L -0.077 ± 0.038, M 0.081 ± 0.047, N -0.121 ± 0.087, P -0.044 ± 0.055, Q 0.029 ± 0.061, R -0.101 ± 0.036, S -0.089 ± 0.042, T 0.129 ± 0.052, W 0.016 ± 0.038, Y -0.178 ± 0.099
R42: A 0.203 ± 0.038, C 0.145 ± 0.06, D -0.047 ± 0.074, E 0.07 ± 0.055, H -0.412 ± 0.14, I -0.114 ± 0.097, K 0.067 ± 0.064, M 0.228 ± 0.049, N 0.115 ± 0.14, P -1.01 ± 0.33, Q 0.121 ± 0.062, S 0.014 ± 0.049, T -0.016 ± 0.069, V 0.177 ± 0.034, W 0.15 ± 0.043, Y 0.033 ± 0.09
D43: A 0.026 ± 0.037, C -0.436 ± 0.082, E 0.07 ± 0.044, F -0.014 ± 0.071, G 0.012 ± 0.035, H -0.32 ± 0.13, I -0.038 ± 0.087, K -0.001 ± 0.05, L -0.066 ± 0.037, M -0.076 ± 0.058, N -0.072 ± 0.073, P -0.471 ± 0.12, Q -0.019 ± 0.074, R -0.024 ± 0.033, S -0.034 ± 0.045, T 0.007 ± 0.055, V -0.103 ± 0.036, W -0.169 ± 0.044, Y -0.103 ± 0.09
K44: A -0.004 ± 0.046, C -0.113 ± 0.067, D -0.059 ± 0.075, E -0.015 ± 0.051, F -0.283 ± 0.087, G 0.035 ± 0.033, H -0.322 ± 0.14, I -0.009 ± 0.13
